Columns and labels:
CM1 = molecular target: T1, CM1; assay: cell-based or functional assay
T1 sequence (peptide): MVPSALTASG

CM4 = molecular target: T2, CM4; assay: cell-based or functional assay
T2 sequence (peptide): MVVLALTASG

Chain of recombinant human MMP2 (P08253 110-660 limits assumed): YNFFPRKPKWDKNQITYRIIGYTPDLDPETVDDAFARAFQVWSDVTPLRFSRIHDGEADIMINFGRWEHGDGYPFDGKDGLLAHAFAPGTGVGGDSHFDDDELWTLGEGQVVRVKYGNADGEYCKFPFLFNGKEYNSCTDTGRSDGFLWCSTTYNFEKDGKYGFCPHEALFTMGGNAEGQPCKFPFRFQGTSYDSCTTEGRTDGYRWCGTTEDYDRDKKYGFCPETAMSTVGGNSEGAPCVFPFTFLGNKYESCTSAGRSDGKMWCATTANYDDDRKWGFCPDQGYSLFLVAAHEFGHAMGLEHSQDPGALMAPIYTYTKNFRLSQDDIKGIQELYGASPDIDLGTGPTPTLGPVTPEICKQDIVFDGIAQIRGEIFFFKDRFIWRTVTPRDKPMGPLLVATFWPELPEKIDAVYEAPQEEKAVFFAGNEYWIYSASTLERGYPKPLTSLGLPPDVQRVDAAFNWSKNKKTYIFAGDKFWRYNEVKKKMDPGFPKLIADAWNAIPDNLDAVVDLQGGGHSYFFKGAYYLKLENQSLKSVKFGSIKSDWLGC

Cleavage efficiency (EC50) (CM1) [µg/mL]	Cleavage efficiency (EC50) (CM4) [µg/mL]	Substance
0.006	0.15	recombinant human MMP2 (from UniProt P08253 110-660) (enzyme)
0.05	0.2	recombinant human MMP9 (from UniProt P14780 107-707) (enzyme)
